Reference: patent publication US11312984B2, “High-purity steviol glycosides” (PURECIRCLE SDN BHD, priority 2013, dated 2022)

What was measured:
[1] = Sweetness of reb M compared to a 10% sucrose solution
From the text: The high purity reb M obtained in this invention, having a molecular weight of 1291.29, a molecular formula of C56H90O33, CAS registry number 1220616-44-3, and the structure presented in FIG. 1, is in the form of a white and odorless powder. The compound is about 200 times sweeter than sugar when compared to a 10% sucrose solution.

[2] = Rubusoside conversion products with UGTSL, UGTSL2 and UGTLB by LC-MS; assay type: biochemical; settings: reaction time UGTSL2 2 hrs, UGTLB 5 hrs, UGTSL 45 hrs
Description: (§1) Conversion of stevioside with UGTSL and UGTSL2 was conducted in similar manner to Example 28, and the conversion of rubusoside with UGTSL and UGTSL2 was conducted similarly to Example 29. Conversions of rubusoside and stevioside with UGTLB was conducted similarly to Example 32.
(§2) The reaction mixtures were analyzed by LCMS to determine all reaction products.

[3] = Catalytic test of in-vitro expressed UDP-glucosyltransferases, Rebaudioside A to Rebaudioside D (HPLC); assay type: biochemical; settings: 0.5 mM Rebaudioside A, 30° C.; for Steviol glycoside conversion in reaction mixture, Reb A (Retention Time ~9.1 min): remaining substrate
Description: The prepared expression medium mix was added to the plasmid solution and the solution was allowed to incubate at 30° C. for 3 hours while mixing the mixture every 45 minutes. 5 μL of the mixture was frozen whereas the remainder was used for the catalytic test for the conversion of Rebaudioside A to Rebaudioside D.
(§3) 430 μL of a reaction mixture containing 0.5 mM Rebaudioside A, 3 mM MgCl2, 50 mM phosphate buffer (pH7.2) and 2.5 mM UDP-glucose was added to a 1.5 mL sterile microtube. 52 μL of the enzyme expression medium was added and the resulting mixture was allowed to react at 30° C. for 24 hours. 125 μL samples were taken after 2 hours, 16 hours and 24 hours and added to a 115 μL of 60% methanol and 10 μL of 2 N H2SO4. The quenched sample was centrifuged at 18,000 g for 2 minutes at RT. 200 μL was transferred to an HPLC vial and analyzed.
The HPLC assay was performed as follows:
as §3, with “to” for “to an”
The HPLC assay was performed as described in EXAMPLE 20.

[4] = Stevioside conversion products with UGTSL, UGTSL2 and UGTLB by LC-MS; assay type: biochemical; settings: reaction time UGTSL2 2 hrs, UGTLB 2 hrs, UGTSL 22 hrs
Description: as §1, §2

Molecule: C=C1C[C@@]23CC[C@H]4[C@@](C)(CCC[C@@]4(C)C(=O)O[C@@H]4O[C@H](CO)[C@@H](O)[C@H](O[C@@H]5O[C@H](CO)[C@@H](O)[C@H](O)[C@H]5O)[C@H]4O[C@@H]4O[C@H](CO)[C@@H](O)[C@H](O)[C@H]4O)[C@@H]2CC[C@]1(O[C@@H]1O[C@H](CO)[C@@H](O)[C@H](O[C@@H]2O[C@H](CO)[C@@H](O)[C@H](O)[C@H]2O)[C@H]1O[C@@H]1O[C@H](CO)[C@@H](O)[C@H](O)[C@H]1O)C3 [reb M, rebaudioside M]
- times sweeter than sugar [1]: about 200 times

B1: S115N05 A7: UGTSL, Solanum lycopersicum cyanidin-3-O-glucoside 2-O-glucuronosyltransferase-like, SEQ ID NO: 5 (protein, listed as Solanum lycopersicum)
chain: MSPKLHKELFFHSLYKKTRSNHTMATLKVLMFPFLAYGHISPYLNVAKKLADRGFLIYFCSTPINLKSTIEKIPEKYADSIHLIELHLPELPQLPPHYHTTNGLPPNLNQVLQKALKMSKPNFSKILQNLKPDLVIYDILQRWAKHVANEQNIPAVKLLTSGAAVFSYFFNVLKKPGVEFPFPGIYLRKIEQVRLSEMMSKSDKEKELEDDDDDDDLLVDGNMQIMLMSTSRTIEAKYIDFCTALTNWKVVPVGPPVQDLITNDVDDMELIDWLGTKDENSTVFVSFGSEYFLSKEDMEEVAFALELSNVNFIWVARFPKGEERNLEDALPKGFLERIGERGRVLDKFAPQPRILNHPSTGGFISHCGWNSAMESIDFGVPIIAMPMHLDQPMNARLIVELGVAVEIVRDDDGKIHRGEIAETLKGVITGKTGEKLRAKVRDISKNLKTIRDEEMDAAAEELIQLCRNGN
- Rubusoside conversion products, LC-MS peak area ratio: Reb D [2]: 3.45%
- Rubusoside conversion products, LC-MS peak area ratio: Reb E [2]: 35.88%
- Rubusoside conversion products, LC-MS peak area ratio: Rub [2]: 7.82%
- Rubusoside conversion products, LC-MS peak area ratio: Stev [2]: 2.37%
- Steviol glycoside conversion in reaction mixture, Reb UNK (Retention Time ~6.7 min) [3]: 23.3 % area
- Steviol glycoside conversion in reaction mixture, Reb A (Retention Time ~9.1 min) [3]: 46.7 % area
- Stevioside conversion products, LC-MS peak area ratio: Reb D [4]: 0.54%
- Stevioside conversion products, LC-MS peak area ratio: Reb E [4]: 49.68%
- Stevioside conversion products, LC-MS peak area ratio: Stev [4]: 25.24%

B2: S115N06 E1: hypothetical protein OsJ_04191, Oryza sativa Japonica Group, SEQ ID NO: 6 (protein, listed as Oryza sativa)
chain: MHVVMLPWLAFGHILPFAEFAKRVARQGHRVTLFSTPRNTRRLIDVPPSLAGRIRVVDIPLPRVEHLPEHAEATIDLPSNDLRPYLRRAYDEAFSRELSRLLQETGPSRPDWVLADYAAYWAPAAASRHGVPCAFLSLFGAAALCFFGPAETLQGRGPYAKTEPAHLTAVPEYVPFPTTVAFRGNEARELFKPSLIPDESGVSESYRFSQSIEGCQLVAVRSNQEFEPEWLELLGELYQKPVIPIGMFPPPPPQDVAGHEETLRWLDRQEPNSVVYAAFGSEVKLTAEQLQRIALGLEASELPFIWAFRAPPDAGDGDGLPGGFKERVNGRGVVCRGWVPQVKFLAHASVGGFLTHAGWNSIAEGLANGVRLVLLPLMFEQGLNARQLAEKKVAVEVARDEDDGSFAANDIVDALRRVMVGEEGDEFGVKVKELAKVFGDDEVNDRYVRDFLKCLSEYKMQRQG
- Steviol glycoside conversion in reaction mixture, Reb D (Retention Time ~5.8 min) [3]: 0.14 % area
- Steviol glycoside conversion in reaction mixture, Reb UNK (Retention Time ~6.7 min) [3]: 7.0 % area
- Steviol glycoside conversion in reaction mixture, Reb A (Retention Time ~9.1 min) [3]: 92.8 % area

B3: S115N01 A1: UDP-glucosyltransferase Os03g0702500, Oryza sativa Japonica Group, SEQ ID NO: 3 (protein, listed as Oryza sativa)
chain: MDDAHSSQSPLHVVIFPWLAFGHLLPCLDLAERLAARGHRVSFVSTPRNLARLPPVRPELAELVDLVALPLPRVDGLPDGAEATSDVPFDKFELHRKAFDGLAAPFSAFLDTACAGGKRPDWVLADLMHHWVALASQERGVPCAMILPCSAAVVASSAPPTESSADQREAIVRSMGTAAPSFEAKRATEEFATEGASGVSIMTRYSLTLQRSKLVAMRSCPELEPGAFTILTRFYGKPVVPFGLLPPRPDGARGVSKNGKHDAIMQWLDAQPAKSVVYVALGSEAPMSADLLRELAHGLDLAGTRFLWAMRKPAGVDADSVLPAGFLGRTGERGLVTTRWAPQVSILAHAAVCAFLTHCGWGSVVEGLQFGHPLIMLPILGDQGPNARILEGRKLGVAVPRNDEDGSFDRGGVAGAVRAVVVEEEGKTFFANARKLQEIVADREREERCIDEFVQHLTSWNELKNNSDGQYP
- Steviol glycoside conversion in reaction mixture, Reb D (Retention Time ~5.8 min) [3]: 2.1 % area
- Steviol glycoside conversion in reaction mixture, Reb A (Retention Time ~9.1 min) [3]: 96.7 % area

B4: S115N01 G2: UDP-glycosyltransferase, Avena strigosa, SEQ ID NO: 4 (protein, listed as Avena strigosa)
chain: MAVKDEQQSPLHILLFPFLAPGHLIPIADMAALFASRGVRCTILTTPVNAAIIRSAVDRANDAFRGSDCPAIDISVVPFPDVGLPPGVENGNALTSPADRLKFFQAVAELREPFDRFLADNHPDAVVSDSFFHWSTDAAAEHGVPRLGFLGSSMFAGSCNESTLHNNPLETAADDPDALVSLPGLPHRVELRRSQMMDPKKRPDHWALLESVNAADQKSFGEVFNSFHELEPDYVEHYQTTLGRRTWLVGPVALASKDMAGRGSTSARSPDADSCLRWLDTKQPGSVVYVSFGTLIRFSPAELHELARGLDLSGKNFVWVLGRAGPDSSEWMPQGFADLITPRGDRGFIIRGWAPQMLILNHRALGGFVTHCGWNSTLESVSAGVPMVTWPRFADQFQNEKLIVEVLKVGVSIGAKDYGSGIENHDVIRGEVIAESIGKLMGSSEESDAIQRKAKDLGAEARSAVENGGSSYNDVGRLMDELMARRSSVKVGEDIIPTNDGL
- Steviol glycoside conversion in reaction mixture, Reb D (Retention Time ~5.8 min) [3]: 0.6 % area
- Steviol glycoside conversion in reaction mixture, Reb A (Retention Time ~9.1 min) [3]: 99.4 % area

B5: UGTSL2: UGTSL2, GI_460410132, Solanum lycopersicum UDP-glucosyltransferase, SEQ ID NO: 9 (protein, listed as Solanum lycopersicum)
chain: MATNLRVLMFPWLAYGHISPFLNIAKQLADRGFLIYLCSTRINLESIIKKIPEKYADSIHLIELQLPELPELPPHYHTTNGLPPHLNPTLHKALKMSKPNFSRILQNLKPDLLIYDVLQPWAEHVANEQNIPAGKLLTSCAAVFSYFFSFRKNPGVEFPFPAIHLPEVEKVKIREILAKEPEEGGRLDEGNKQMMLMCTSRTIEAKYIDYCTELCNWKVVPVGPPFQDLITNDADNKELIDWLGTKHENSTVFVSFGSEYFLSKEDMEEVAFALELSNVNFIWVARFPKGEERNLEDALPKGFLERIGERGRVLDKFAPQPRILNHPSTGGFISHCGWNSAMESIDFGVPIIAMPIHNDQPINAKLMVELGVAVEIVRDDDGKIHRGEIAETLKSVVTGETGEILRAKVREISKNLKSIRDEEMDAVAEELIQLCRNSNKSK
- Rubusoside conversion products, LC-MS peak area ratio: Reb D [2]: 6.73%
- Rubusoside conversion products, LC-MS peak area ratio: Reb E [2]: 52.88%
- Rubusoside conversion products, LC-MS peak area ratio: Rub [2]: 3.54%
- Rubusoside conversion products, LC-MS peak area ratio: Stev [2]: 2.12%
- Stevioside conversion products, LC-MS peak area ratio: Reb D [4]: 1.70%
- Stevioside conversion products, LC-MS peak area ratio: Reb E [4]: 42.56%
- Stevioside conversion products, LC-MS peak area ratio: Stev [4]: 20.01%

B6: S115N06 C2: UDP-glucoronosyl/UDP-glucosyl transferase family protein, Arabidopsis lyrata subsp. lyrata, SEQ ID NO: 7 (protein, listed as Arabidopsis lyrata)
chain: MDDKKEEVMHIAMFPWLAMGHLLPFLRLSKLLAQKGHKISFISTPRNILRLPKLPSNLSSSITFVSFPLPSISGLPPSSESSMDVPYNKQQSLKAAFDLLQPPLTEFLRLSSPDWIIYDYASHWLPSIAKELGISKAFFSLFNAATLCFMGPSSSLIEESRSTPEDFTVVPPWVPFKSTIVFRYHEVSRYVEKTDEDVTGVSDSVRFGYTIDGSDAVFVRSCPEFEPEWFSLLQDLYRKPVFPIGFLPPVIEDDDDDTTWVRIKEWLDKQRVNSVVYVSLGTEASLRREELTELALGLEKSETPFFWVLRNEPQIPDGFEERVKGRGMVHVGWVPQVKILSHESVGGFLTHCGWNSVVEGIGFGKVPIFLPVLNEQGLNTRLLQGKGLGVEVLRDERDGSFGSDSVADSVRLVMIDDAGEEIREKVKLMKGLFGNMDENIRYVDELVGFMRNDESSQLKEEEEEDDCSDDQSSEVSSETDEKELNLDLKEEKRRISVYKSLSSEFDDYVANEKMG
- Steviol glycoside conversion in reaction mixture, Reb D (Retention Time ~5.8 min) [3]: 0.28 % area
- Steviol glycoside conversion in reaction mixture, Reb UNK (Retention Time ~6.7 min) [3]: 3.9 % area
- Steviol glycoside conversion in reaction mixture, Reb A (Retention Time ~9.1 min) [3]: 95.8 % area
